This experiment addresses GST-Foxp1 fusion protein (mouse) (mouse) (UniProt P58462). Put plainly: pull-down; GST or GST-Foxp1 from bacterial extracts immobilised on GSH-agarose beads and washed; 1 ul of 35S-labelled in vitro translated Ikaros in 200 ul 0.02 M HEPES-KOH pH 7.9, 0.1% NP-40, 0.15 M NaCl, 1 mM DTT, 1 h at 4°C; quantified relative to input and to wild type (100%).

Two substances from publication PMC5323203 can be followed below.

Chain of UniProt P58462 (P58462 whole entry, the tested form may be a part): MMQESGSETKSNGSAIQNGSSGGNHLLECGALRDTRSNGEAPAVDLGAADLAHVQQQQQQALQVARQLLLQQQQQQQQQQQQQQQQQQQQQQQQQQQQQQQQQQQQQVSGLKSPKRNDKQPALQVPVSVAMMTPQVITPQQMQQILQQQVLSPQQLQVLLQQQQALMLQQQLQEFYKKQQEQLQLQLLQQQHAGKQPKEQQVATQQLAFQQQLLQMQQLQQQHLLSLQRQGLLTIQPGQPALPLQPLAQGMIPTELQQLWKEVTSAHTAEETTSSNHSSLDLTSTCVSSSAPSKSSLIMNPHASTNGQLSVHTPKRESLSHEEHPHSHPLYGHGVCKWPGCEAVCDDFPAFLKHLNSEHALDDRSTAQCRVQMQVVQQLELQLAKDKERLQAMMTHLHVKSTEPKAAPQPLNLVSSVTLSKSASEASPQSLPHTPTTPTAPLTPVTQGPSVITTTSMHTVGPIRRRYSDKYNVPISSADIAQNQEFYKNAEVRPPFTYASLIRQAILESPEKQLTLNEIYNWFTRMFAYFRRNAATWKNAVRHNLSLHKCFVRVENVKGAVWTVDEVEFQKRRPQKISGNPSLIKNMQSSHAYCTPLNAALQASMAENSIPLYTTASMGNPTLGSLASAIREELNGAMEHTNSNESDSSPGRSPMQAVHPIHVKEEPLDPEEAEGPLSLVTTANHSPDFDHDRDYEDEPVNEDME

“IKΔ235-362 (mouse Ikaros deletion; in vitro translated) (domain or fragment)” registered a reduction relative to wild-type binding of 40%. “IKΔC458 (mouse Ikaros deletion of the two C-terminal zinc fingers; in vitro translated) (domain or fragment)”: the reduction relative to wild-type binding came to 50%.
